First the molecules themselves.
B1: EHEE_rd4_0086 (parent)
chain: EIHIRTNGEEQARKVYKMLAKRNYDVKIEQHNGQWVVTAS

The variants in this data set derive from B1. The data set can be described thus: folding stability dG (cDNA display proteolysis); higher = more stable. The conditions noted are these: PBS, room temperature.
With EIHIRTNGEEQARKVYKMLAKRNMDVKIEQHNGQWVVTAS, the “folding stability dG” value is 1.71 kcal/mol.
Regarding EIHIRTNGEEQARKVYKMLAKRNVDVKIEQHNGQWVVTAS, the “folding stability dG” value came to 1.29 kcal/mol.
Take EIHIRTNGEEQARKVYKMLAKRNYDVKIVQHNGQWVVTAS: the “folding stability dG” value was 1.98 kcal/mol.
Then EIHIRTNGEEQARKVYKMLAKRNYDVKIWQHNGQWVVTAS, with 2.33 kcal/mol; and EIHIRTNGEEQARKVYKMLAKRNYDVKIEQHNSQWVVTAS, with 1.08 kcal/mol.
Then EIHIRTNGEEQARKVYKMLAKRNYDVKIEQHNIQWVVTAS, with 0.069 kcal/mol.
To EIHIRTNGEEQARKVYKMVAKRNYDVKIEQHNGQWVVTAS belongs -0.352 kcal/mol; to EIHIRTNGEEQARKVYKMWAKRNYDVKIEQHNGQWVVTAS, 1.02 kcal/mol.
For EIHIRTNGEEQARKVYHMLAKRNYDVKIEQHNGQWVVTAS, the “folding stability dG” value worked out at 1.83 kcal/mol.
To EIHIRTNGEEQARKVYKMLAQRNYDVKIEQHNGQWVVTAS belongs 2.1 kcal/mol.
Then EIHIRTNGEEQARKVYKMLAKRNYDVKIEQHNGQWVVTAK, with 2.19 kcal/mol; and EIHIRTNGEEQARKVYKMLAKRNYDVKIEQHNGQWVVTAG, with 1.33 kcal/mol; and EIHIRTNGEEQARKVYKMLAKRNYDVKIEQHNGQWVVTAL, with 1.78 kcal/mol.
Then EIHIRTNGEEQARKVYKMLAKRNYDVKIEQHNGQWVVTAA, with 1.54 kcal/mol; and EIHIRTNGHEQARKVYKMLAKRNYDVKIEQHNGQWVVTAS, with 1.55 kcal/mol; and EIHIRTNGWEQARKVYKMLAKRNYDVKIEQHNGQWVVTAS, with 2.41 kcal/mol.
As to ETHIRTNGEEQARKVYKMLAKRNYDVKIEQHNGQWVVTAS, the “folding stability dG” value was found to be 0.864 kcal/mol.
Consider EIHIRTNGEEQARKVYKMLAKRNYDVLIEQHNGQWVVTAS, for which the “folding stability dG” value came to 1.12 kcal/mol.
In the case of EIHIRTNGEEQARKVYKMLAKRNYDVQIEQHNGQWVVTAS, the “folding stability dG” value was 1.44 kcal/mol.
For EIHIRTNGEEQARKVYKMLAKRNYDVSIEQHNGQWVVTAS, the “folding stability dG” value was 1.5 kcal/mol.
Then EIHIRTNGEEQARKVYKMLAKRNYDVNIEQHNGQWVVTAS, with 1.16 kcal/mol; and EIHIRTNGEEFARKVYKMLAKRNYDVKIEQHNGQWVVTAS, with 2.05 kcal/mol.
As to EIHIRTNGEEGARKVYKMLAKRNYDVKIEQHNGQWVVTAS, the “folding stability dG” value was 1.02 kcal/mol.
Then DIHIRTNGEEQARKVYKMLAKRNYDVKIEQHNGQWVVTAS, with 1.72 kcal/mol; and EIHIRTNGEEQARKVYKMLAKRNYDVKIEQHNGQWVITAS, with 1.79 kcal/mol.
Regarding EIHICTNGEEQARKVYKMLAKRNYDVKIEQHNGQWVVTAS, the “folding stability dG” value was found to be 2.85 kcal/mol.
As to EIHIRTNSEEQARKVYKMLAKRNYDVKIEQHNGQWVVTAS, the “folding stability dG” value is 3.25 kcal/mol.
EIHIRTNHEEQARKVYKMLAKRNYDVKIEQHNGQWVVTAS: the “folding stability dG” value worked out at 2.21 kcal/mol.
Consider EIHIRTNNEEQARKVYKMLAKRNYDVKIEQHNGQWVVTAS, for which the “folding stability dG” value was determined as 2.94 kcal/mol.
Then EIHIRTNGEEQARKVYKMLAKRNYFVKIEQHNGQWVVTAS, with 2.14 kcal/mol; and EIHIRTNGEEQARKVYKMLAKRNYDGKIEQHNGQWVVTAS, with -0.027 kcal/mol; and EIHIRTNGEEQARKVYKMLAKRNYDIKIEQHNGQWVVTAS, with 1.09 kcal/mol.
To EIHIRTNGEEQARKVTKMLAKRNYDVKIEQHNGQWVVTAS belongs 0.377 kcal/mol; to EIHIRTNGEEQARKVKKMLAKRNYDVKIEQHNGQWVVTAS, 1.07 kcal/mol; to EIHIRTNGEEQARKVAKMLAKRNYDVKIEQHNGQWVVTAS, 2.76 kcal/mol.
For EIHIRTNGEEQARKVWKMLAKRNYDVKIEQHNGQWVVTAS, the “folding stability dG” value is 1.38 kcal/mol.
To EIHIRTNGEEQARKVYKMLAKRNYDVKIEQHNGQIVVTAS belongs -0.153 kcal/mol; to EIHIRTGGEEQARKVYKMLAKRNYDVKIEQHNGQWVVTAS, 1.5 kcal/mol; to EIHIRLNGEEQARKVYKMLAKRNYDVKIEQHNGQWVVTAS, 2.35 kcal/mol.
To EIHIRTNGEEQARKIYKMLAKRNYDVKIEQHNGQWVVTAS belongs 2.49 kcal/mol.
Then EIHIRTNGEEQARKEYKMLAKRNYDVKIEQHNGQWVVTAS, with -0.159 kcal/mol.
Regarding EIHIRTNGEEQARKTYKMLAKRNYDVKIEQHNGQWVVTAS, the “folding stability dG” value turned out to be 0.624 kcal/mol.
To EIHIRTNGEEQARKYYKMLAKRNYDVKIEQHNGQWVVTAS belongs 1.97 kcal/mol; to EIHIRTNGEEQARKLYKMLAKRNYDVKIEQHNGQWVVTAS, 2.35 kcal/mol.
To EIHIRTNGEEQARKVYKMLAKRNYDVKVEQHNGQWVVTAS belongs 1.29 kcal/mol; to EIHIRTNGEEQARWVYKMLAKRNYDVKIEQHNGQWVVTAS, 2.35 kcal/mol.
With EIHIRTNGEEQARFVYKMLAKRNYDVKIEQHNGQWVVTAS, the “folding stability dG” value is 1.89 kcal/mol.
Then EIHIRTNGEEQAREVYKMLAKRNYDVKIEQHNGQWVVTAS, with 1.68 kcal/mol.
On to EIHIRTNGEEQARMVYKMLAKRNYDVKIEQHNGQWVVTAS, for which the “folding stability dG” value came to 1.87 kcal/mol.
To EIHIRTNGEEQARKVYKMLAKRNYDVKIEQPNGQWVVTAS belongs 0.168 kcal/mol; to EIHIRTNGEEQARKVYKMLAKRNYDVKIEQHNGNWVVTAS, 1.52 kcal/mol; to EIHIRTNGEEQARKVYKMLAKRNYDVKIEQHNGRWVVTAS, 1.59 kcal/mol.
To EIHIRTNGEEQARKVYKMLAKRNYDVKIEQHNGFWVVTAS belongs 2.5 kcal/mol; to EIHIRTNGEEQARKVYKMLAKRNYDVKIEQHNGGWVVTAS, 1.58 kcal/mol.
Then EIHIRTNGEEQARKVYKMLAKRNYDVKIEFHNGQWVVTAS, with 2.38 kcal/mol.
As for EIHIRTNGEEQARKVYKMLSKRNYDVKIEQHNGQWVVTAS, the “folding stability dG” value amounted to 1.78 kcal/mol.
Then EIHIRTNGEEQARKVYKMLMKRNYDVKIEQHNGQWVVTAS, with 2.21 kcal/mol; and EIHIRTNGEEQAGKVYKMLAKRNYDVKIEQHNGQWVVTAS, with 0.376 kcal/mol.
EIHIRTNGEEQANKVYKMLAKRNYDVKIEQHNGQWVVTAS: the “folding stability dG” value came to 1.36 kcal/mol.
To EIHIRTNGEEQARKVYKMLAKRNYDVKIEQHNGQWVVTTS belongs 1.41 kcal/mol.
Turning to EIHIRTNGEEQARKVYKMLAKRNYDVKIEQHNGQWVVTYS, the “folding stability dG” value worked out at 2.29 kcal/mol.
Then EIHIRTNGEEQARKVYKMLAKRTYDVKIEQHNGQWVVTAS, with 0.87 kcal/mol; and EIHIRTNGEEQARKVYKMLAKRNYDVKIEQHNGQWIVTAS, with 2.15 kcal/mol.

The values are drawn from the MegaScale stability set (Tsuboyama et al. 2023).
